Data on 16 molecules can be found in US20140322307A1 (LIPOTEC S A, published 2014).

T1: Proteinase-Activated Receptor-2 (human, on human keratinocytes) (human, UniProt P55085 37-397)
T1 sequence (looked up): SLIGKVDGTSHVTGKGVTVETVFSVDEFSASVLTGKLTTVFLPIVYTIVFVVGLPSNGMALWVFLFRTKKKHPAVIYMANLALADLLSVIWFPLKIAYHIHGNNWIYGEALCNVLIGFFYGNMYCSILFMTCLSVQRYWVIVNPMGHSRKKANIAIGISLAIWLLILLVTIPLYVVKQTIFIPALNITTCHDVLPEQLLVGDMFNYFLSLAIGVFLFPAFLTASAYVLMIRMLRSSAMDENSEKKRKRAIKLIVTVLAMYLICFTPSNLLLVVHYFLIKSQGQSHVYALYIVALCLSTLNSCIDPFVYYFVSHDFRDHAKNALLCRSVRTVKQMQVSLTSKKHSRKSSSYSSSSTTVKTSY

B1: Ac-L-Ser-L-Phe-L-Trp-L-Phe-L-His-L-Ser-NH2 (peptide)
peptide: Ac-SFWFHS-NH2
B2: Ac-L-Ser-L-Phe-L-Gln-L-Phe-L-Ile-L-Ser-NH2 (peptide)
peptide: Ac-SFQFIS-NH2
B3: Ac-L-Phe-L-Met-L-Gln-L-Phe-L-Ile-L-Ser-NH2 (peptide)
peptide: Ac-FMQFIS-NH2
B4: Ac-L-Phe-L-Phe-L-Gln-L-Asp-L-Ile-L-Ser-NH2 (peptide)
peptide: Ac-FFQDIS-NH2
B5: Ac-L-Ser-L-Met-L-Trp-L-Phe-L-His-L-Ser-NH2 (peptide)
peptide: Ac-SMWFHS-NH2
B6: Ac-L-Phe-L-Met-L-Arg-L-Phe-L-Ile-L-Ser-NH2 (peptide)
peptide: Ac-FMRFIS-NH2
B7: Ac-L-Phe-L-Phe-L-Gln-L-Phe-L-Ile-L-Ser-NH2 (peptide)
peptide: Ac-FFQFIS-NH2
B8: Ac-L-Ser-L-Met-L-Gln-L-Phe-L-Ile-L-Ser-NH2 (peptide)
peptide: Ac-SMQFIS-NH2
B9: Ac-L-Phe-L-Met-L-Arg-L-Asp-L-His-L-Ser-NH2 (peptide)
peptide: Ac-FMRDHS-NH2
B10: Ac-L-Phe-L-Phe-L-Trp-L-Phe-L-His-L-Ser-NH2 (peptide)
peptide: Ac-FFWFHS-NH2
B11: Ac-L-Phe-L-Met-L-Trp-L-Phe-L-Ile-L-Ser-NH2 (peptide)
peptide: Ac-FMWFIS-NH2
B12: Ac-L-Phe-L-Phe-L-Trp-L-Asp-L-Ile-L-Ser-NH2 (peptide)
peptide: Ac-FFWDIS-NH2
B13: Ac-L-Phe-L-Met-L-Trp-L-Asp-L-Ile-L-Ser-NH2 (peptide)
peptide: Ac-FMWDIS-NH2
B14: Ac-L-Ser-L-Met-L-Trp-L-Phe-L-Ile-L-Ser-NH2 (peptide)
peptide: Ac-SMWFIS-NH2
B15: Ac-L-Phe-L-Met-L-Trp-L-Phe-L-His-L-Ser-NH2 (peptide)
peptide: Ac-FMWFHS-NH2
B16: Ac-L-Ser-L-Phe-L-Arg-L-Phe-L-Ile-L-Ser-NH2 (peptide)
peptide: Ac-SFRFIS-NH2

In the test the target is T1, Proteinase-Activated Receptor-2 (human, …). Put plainly: cell-based or functional assay.
Regarding B1, the “Inhibition PAR-2 activity (calcium fluorescence, human keratinocytes, peptide at 1 mg/mL)” value was 26.4% and the “PAR-2 activity (calcium fluorescence, human keratinocytes, peptide at 1 mg/mL)” value worked out at 73.6%.

As to B2, the “Inhibition PAR-2 activity (calcium fluorescence, human keratinocytes, peptide at 1 mg/mL)” value came to 39% and the “PAR-2 activity (calcium fluorescence, human keratinocytes, peptide at 1 mg/mL)” value came to 61%.

For B3, the “Inhibition PAR-2 activity (calcium fluorescence, human keratinocytes, peptide at 1 mg/mL)” value stood at 89.1% and the “PAR-2 activity (calcium fluorescence, human keratinocytes, peptide at 1 mg/mL)” value is 10.9%.

Regarding B4, the “Inhibition PAR-2 activity (calcium fluorescence, human keratinocytes, peptide at 1 mg/mL)” value is 27% and the “PAR-2 activity (calcium fluorescence, human keratinocytes, peptide at 1 mg/mL)” value amounted to 73%.

Consider B5, for which the “Inhibition PAR-2 activity (calcium fluorescence, human keratinocytes, peptide at 1 mg/mL)” value was 64.9% and the “PAR-2 activity (calcium fluorescence, human keratinocytes, peptide at 1 mg/mL)” value worked out at 35.1%.

As to B6, the “Inhibition PAR-2 activity (calcium fluorescence, human keratinocytes, peptide at 1 mg/mL)” value amounted to 35.1% and the “PAR-2 activity (calcium fluorescence, human keratinocytes, peptide at 1 mg/mL)” value was determined as 64.9%.

Regarding B7, the “Inhibition PAR-2 activity (calcium fluorescence, human keratinocytes, peptide at 1 mg/mL)” value is 59.3% and the “PAR-2 activity (calcium fluorescence, human keratinocytes, peptide at 1 mg/mL)” value was determined as 40.7%.

With B8, the “Inhibition PAR-2 activity (calcium fluorescence, human keratinocytes, peptide at 1 mg/mL)” value was 52.6% and the “PAR-2 activity (calcium fluorescence, human keratinocytes, peptide at 1 mg/mL)” value is 47.4%.

In the case of B9, the “Inhibition PAR-2 activity (calcium fluorescence, human keratinocytes, peptide at 1 mg/mL)” value came out at 66.9% and the “PAR-2 activity (calcium fluorescence, human keratinocytes, peptide at 1 mg/mL)” value is 33.1%.

With B10, the “Inhibition PAR-2 activity (calcium fluorescence, human keratinocytes, peptide at 1 mg/mL)” value came to 49.2% and the “PAR-2 activity (calcium fluorescence, human keratinocytes, peptide at 1 mg/mL)” value stood at 50.8%.

As for B11, the “Inhibition PAR-2 activity (calcium fluorescence, human keratinocytes, peptide at 1 mg/mL)” value was determined as 67.7% and the “PAR-2 activity (calcium fluorescence, human keratinocytes, peptide at 1 mg/mL)” value is 32.3%.

With B12, the “Inhibition PAR-2 activity (calcium fluorescence, human keratinocytes, peptide at 1 mg/mL)” value was found to be 38.4% and the “PAR-2 activity (calcium fluorescence, human keratinocytes, peptide at 1 mg/mL)” value came out at 61.6%.

On to B13, for which the “Inhibition PAR-2 activity (calcium fluorescence, human keratinocytes, peptide at 1 mg/mL)” value turned out to be 26.5% and the “PAR-2 activity (calcium fluorescence, human keratinocytes, peptide at 1 mg/mL)” value was 73.5%.

Consider B14, for which the “Inhibition PAR-2 activity (calcium fluorescence, human keratinocytes, peptide at 1 mg/mL)” value turned out to be 67.8% and the “PAR-2 activity (calcium fluorescence, human keratinocytes, peptide at 1 mg/mL)” value was 32.2%.

B15: the “Inhibition PAR-2 activity (calcium fluorescence, human keratinocytes, peptide at 1 mg/mL)” value amounted to 72.2% and the “PAR-2 activity (calcium fluorescence, human keratinocytes, peptide at 1 mg/mL)” value worked out at 27.8%.

In the case of B16, the “Inhibition PAR-2 activity (calcium fluorescence, human keratinocytes, peptide at 1 mg/mL)” value came to 16.2% and the “PAR-2 activity (calcium fluorescence, human keratinocytes, peptide at 1 mg/mL)” value came out at 83.8%.
